Laboratory results taken from patent publication US12099068B2, “Biomarkers for graft-versus-host disease” (Incyte Corporation, priority 2018, dated 2024).

B1: SCAMP3 (protein, UniProt O14828 1-347, looked up)
Secretory carrier-associated …: MAQSRDGGNPFAEPSELDNPFQDPAVIQHRPSRQYATLDVYNPFETREPPPAYEPPAPAPLPPPSAPSLQPSRKLSPTEPKNYGSYSTQASAAAATAELLKKQEELNRKAEELDRRERELQHAALGGTATRQNNWPPLPSFCPVQPCFFQDISMEIPQEFQKTVSTMYYLWMCSTLALLLNFLACLASFCVETNNGAGFGLSILWVLLFTPCSFVCWYRPMYKAFRSDSSFNFFVFFFIFFVQDVLFVLQAIGIPGWGFSGWISALVVPKGNTAVSVLMLLVALLFTGIAVLGIVMLKRIHSLYRRTGASFQKAQQEFAAGVFSNPAVRTAAANAAAGAAENAFRAP
B2: CLEC7A (protein, UniProt Q9BXN2 1-247, looked up)
C-type lectin domain family 7 …: MEYHPDLENLDEDGYTQLHFDSQSNTRIAVVSEKGSCAASPPWRLIAVILGILCLVILVIAVVLGTMAIWRSNSGSNTLENGYFLSRNKENHSQPTQSSLEDSVTPTKAVKTTGVLSSPCPPNWIIYEKSCYLFSMSLNSWDGSKRQCWQLGSNLLKIDSSNELGFIVKQVSSQPDNSFWIGLSRPQTEVPWLWEDGSTFSSNLFQIRTTATQENPSPNCVWIHVSVIYDQLCSVPSYSICEKKFSM
B3: STX16 (protein, UniProt O14662 1-325, looked up)
Syntaxin-16: MATRRLTDAFLLLRNNSIQNRQLLAEQVSSHITSSPLHSRSIAAELDELADDRMALVSGISLDPEAAIGVTKRPPPKWVDGVDEIQYDVGRIKQKMKELASLHDKHLNRPTLDDSSEEEHAIEITTQEITQLFHRCQRAVQALPSRARACSEQEGRLLGNVVASLAQALQELSTSFRHAQSGYLKRMKNREERSQHFFDTSVPLMDDGDDNTLYHRGFTEDQLVLVEQNTLMVEEREREIRQIVQSISDLNEIFRDLGAMIVEQGTVLDRIDYNVEQSCIKTEDGLKQLHKAEQYQKKNRKMLVILILFVIIIVLIVVLVGVKSR
B4: SMOC2 (protein, UniProt Q9H3U7 22-446, looked up)
SPARC-related modular …: QKFSALTFLRVDQDKDKDCSLDCAGSPQKPLCASDGRTFLSRCEFQRAKCKDPQLEIAYRGNCKDVSRCVAERKYTQEQARKEFQQVFIPECNDDGTYSQVQCHSYTGYCWCVTPNGRPISGTAVAHKTPRCPGSVNEKLPQREGTGKTDDAAAPALETQPQGDEEDIASRYPTLWTEQVKSRQNKTNKNSVSSCDQEHQSALEEAKQPKNDNVVIPECAHGGLYKPVQCHPSTGYCWCVLVDTGRPIPGTSTRYEQPKCDNTARAHPAKARDLYKGRQLQGCPGAKKHEFLTSVLDALSTDMVHAASDPSSSSGRLSEPDPSHTLEERVVHWYFKLLDKNSSGDIGKKEIKPFKRFLRKKSKPKKCVKKFVEYCDVNNDKSISVQELMGCLGVAKEDGKADTKKRHTPRGHAESTSNRQPRKQG
B5: FAM3B (protein, UniProt P58499 30-235, looked up)
Protein FAM3B: ELIPDAPLSSAAYSIRSIGERPVLKAPVPKRQKCDHWTPCPSDTYAYRLLSGGGRSKYAKICFEDNLLMGEQLGNVARGINIAIVNYVTGNVTATRCFDMYEGDNSGPMTKFIQSAAPKSLLFMVTYDDGSTRLNNDAKNAIEALGSKEIRNMKFRSSWVFIAAKGLELPSEIQREKINHSDAKNNRYSGWPAEIQIEGCIPKERS
B6: SLAMF8 (protein, UniProt Q9P0V8 23-285, looked up)
SLAM family member 8: AQVLSKVGGSVLLVAARPPGFQVREAIWRSLWPSEELLATFFRGSLETLYHSRFLGRAQLHSNLSLELGPLESGDSGNFSVLMVDTRGQPWTQTLQLKVYDAVPRPVVQVFIAVERDAQPSKTCQVFLSCWAPNISEITYSWRRETTMDFGMEPHSLFTDGQVLSISLGPGDRDVAYSCIVSNPVSWDLATVTPWDSCHHEAAPGKASYKDVLLVVVPVSLLLMLVTLFSAWHWCPCSGKKKKDVHADRVGPETENPLVQDLP

System: plasma proteins
Test: Plasma proteins modulated between baseline and day 28 in responders (CR, VGPR, PR; n = 19), Example 6 (Table 13)
Type: in vivo, human
Conditions: plasma protein (OLINK NPX); responders (CR, VGPR, PR; n = 19); itacitinib 200 mg or 300 mg QD with corticosteroids; day 28 vs baseline
Protocol: Due to the limited sample size, steroid-naive (N=10) and steroid-refractory (N=18) patients were combined for further analysis. Broad proteomic analysis of over 1000 proteins was conducted by OLINK Proteomics (Watertown, MA) using a proximity extension assay as described by the manufacturer. Data are presented as normalized protein expression (NPX) in log 2 scale. Statistical differences were evaluated using unpaired and paired t tests, one-way […] (ANOVA), and Pearson Correlation. Significance was conferred when P<0.05.
Longitudinal differences in protein expression were analyzed by evaluating plasma samples from baseline/screening and day 28.

| Molecule | Fold Change, Decreased Expression from Baseline to Day 28 | Fold Change, Increased Expression from Baseline to Day 28 |
| --- | --- | --- |
| B1 | −1.7405 | – |
| B2 | −1.8103 | – |
| B3 | −1.4673 | – |
| B4 | – | 1.2842 |
| B5 | – | 1.7951 |
| B6 | −1.492 | – |
